Assay: soluble on expression in E. coli; label from the status in PepcDB or PDB records

Sequence | soluble on expression in E. coli
GPGSMVKKMGRDEARAGVERRPPPMLKAERQAAFRRKVRNELLLSGRERKDAERQRMEEFRRLCKAEGIQSKRLQEYDAMREEAANKLGEKLNHIEYDQSLTNAEKRKRRYNLKRNYAGQTVMDLVQKQEKHHNALTKVEKIRKKRQEEIEAARVAKRERDEMKVKRIKERMAQNALYAQRTRKGQPVMSGRVEALLNKIQRNQQQ | soluble
MSLEYKYELTIDKLLQSGVSSNPDQIINYTGKREFTFKDFSKRVNTLAKALISIGVKKGDRVAVIDWDTYVYLEAYFAVPMVDAVLHTVNVRYPQDLIYYTMDHAEDKYVIVRDEFVPILSKNREAFYFIKGWIVYSETGQIPDSLSPKYVYDDLMKESYSDIELPQLSENDLATTFYTSGTTGIPKGVQFTHRQIVLHSISSGLALADDPINLTSRDVIMPLVPMFHVHAWGVPYMSIMSGRRYVLPGRYDFDHIIDLIDKYNVSVIAMVPSILYLIVTNPNVKKIAGRGIKAIVGGGALPEGLANAAEKLGITAISGYGLSETAPILTLATYNERVKAMPESEKKKFRLKTGIPIPLVQLRVVDDKMNDVPKDEKTIGEIVVRAPWLTSVYVKNKEGTEALWRGDWMHTGDLAVMDEYGYIRIVDREKDAVKSGGEFIPSLVLEDAISSCSGVVENAVVGRPDEKWGERPVAFYTGTAKPDEIRKHLIEMVNAGRIAKFWIPDDFINIKEFAKTSTGKIDKKVLREMIKKEGHHHHHH | soluble
MGSDKIHHHHHHMSKNEIIWFDGKWSDSGVPMIGAADHAFWMASTVFDGARAINGHLPDLSAHSQRVINSALTMGMKPKIDRQEIERLVHEGMSHLTNQETDYYIKMLFFCPGGFLLPDADTTTFALHIFEAPLPEDKGFSATFSEYRRPAPSMAPTEAKASCLYPNTQRIIRDAIARGFENAVVLDSDGNVAEFAVANLWIVRDGVALTPTPNGSFLNGITRQRVMALLRDDGITVRETQLAPSDVMEADEVFSTGNHGKVLHCNRVEDRSLPYGPIAQRARELYMAYAHTC | not soluble
MGSDKIHHHHHHMDEQIKKAIEAHALAEYPRECCGLVVKTESGEIYVRCRNLAAVPTDQFALASEDYAAAEDMGEIVALVHSHPGASAQPSEADRAMCERSGIEKWVIVSLGVQADGSIGIDDWCEFEPAGYVTRLIGRQFVHGVHDCYAIVRDWYLAERGVLLPDFEREDDWWNDGRSNLYLNHYQDAGFLDVGRGVTLQVGDVLLMQIRSKNDVPNHAGVYLGDGQFLHHMHGRLSARAVWGGMWADCCTTVLRYAGGRK | not soluble
MDEFIIKRAKELQGYIVEKRRDFHMYPELKYEEERTSKIVEEELKKLGYEVVRTAKTGVIGILKGKEDGKTVALRADMDALPIQEENDVPYKSRVPGKMHACGHDAHTAMLLGAAKILAEMKDELQGTVKLIFQPAEEGGLGAKKIVEEGHLDDVDAIFGIHVWAELPSGIIGIKSGPLLASADAFRVLIKGKGGHGAAPHLSIDPIALAVDLVNAYQKIISREVDPLQPAVLSVTSIKAGTTFNVIPESAEILGTIRTFDEEVRDYIVRRMKEITENFANGMRCEGKFELTIEHIPPTINNEKLANFARDVLKVLGEIREPKPTMGAEDFAFYTTKAPGLFIFLGIRNEEKGIIYPHHHPKFNVDEDILWMGAAIHSLLTYHYLSL | soluble
MAHHHHHHMAADKDTPDSLGHSQTMAAEGTKGVATEQQPQASPSSSSAAAAATSMSVAETTATDATTAAASRKAPAPHDKAVAVNEGSTARVAAASSSSSTASSSASVDEQRRRRLALYGSRAMAAGGKKGPALAADPHHPSTPHGSAHGRHALTAFGARRGGELAFYIQQGGDLTSQGRYLVIGDGLMAPFMALCLRVHGLECDLAHHPSQNDLDRGTVVLTPSVTQLMGDVLNVSVPSGSVVGRVLTFDHVGNDMCDVDLNEFREKGESPTFFCCDRLKVESALMSLCRIGAHSCMVLPKPQIDKGGLEPLESGGVRVRFTSGLQQDYLGVICTARNQELVPELTITNEELQARAENAEKYRDTFSKSVRWMELCVPPLPELGKFEKRFTPGSQEIVEILTPRDAKMTVRPTMMATKLFYNVTLTIPDGTADPRLKSTSTKLFWDDVVMHWTSGVPGYISHTMFRPMFTHLQQNFTKSSALVYRTPLFLMPHWSEGGGRVIKVAHAAHGSCFDAVDVSDAQGFTDCFTLARTIAGGEDVAAFLKERRLQVMEEMDHHSRLTYYGLKERGQMAYMMSRFNMKIMRKYKKSWRSILQNYVTLMPKSIPR | soluble

Reference: the DeepSol protein solubility set
